Reference: patent publication US20160251435A1 (INHIBRX, published 2016)
Residue numbers refer to the chain shown, from its start. Where two headings read alike, the source gives them in different places.

What was measured:
[1] = target: T1, human CD47, endogenous cell surface form (Raji, CCRF-CEM cells) (human, UniProt Q08722 19-323); test: flow cytometry on Raji cells, MFI (FL4)
T1 construct: the cells carry endogenous CD47; also called cell surface CD47
Protocol: (§1) Humanized antibodies were tested for their ability to bind Raji cells by flow cytometry (FIG. 7). […] Apparent affinities were determined by non-linear fits (Prism Graphpad Software) of the median fluorescence intensities at various antibody concentrations.

[2] = target: T1, human CD47, endogenous cell surface …; test: flow cytometry on Raji cells, MFI (FL4); remark: listed apart in the source
Protocol: as §1

[3] = target: T1, human CD47, endogenous cell surface …; test: flow cytometry on Raji cells, MFI (FL4); remark: listed apart in the source
Protocol: as §1

[4] = target: T1, human CD47, endogenous cell surface …; test: flow cytometry on Raji cells, MFI (FL4); remark: listed apart in the source
Protocol: as §1

[5] = target: T1, human CD47, endogenous cell surface …; test: flow cytometry on Raji cells, MFI (FL4); remark: listed apart in the source
Protocol: as §1

[6] = target: T1, human CD47, endogenous cell surface …; test: apparent KD, flow cytometry on Raji cells, non-linear fit of median fluorescence
[7] = target: T1, human CD47, endogenous cell surface …; test: as above; remark: listed apart in the source
Protocol: as §1

[8] = target: T1, human CD47, endogenous cell surface …; test: flow cytometry on Raji cells, MFI (FL4); remark: listed apart in the source
Protocol: as §1

[9] = target: T1, human CD47, endogenous cell surface …; test: flow cytometry on Raji cells, MFI (FL4); remark: listed apart in the source
Protocol: as §1

[10] = target: T1, human CD47, endogenous cell surface …; test: apparent KD, flow cytometry on cell surface CD47, non-linear fit of median fluorescence
Protocol: Apparent affinities were determined by non-linear fits (Prism Graphpad Software) of the median fluorescence intensities at various antibody concentrations.

[11] = target: T1, human CD47, endogenous cell surface …; test: flow cytometry blocking: SIRPa-Fc binding to CCRF-CEM cells with rising antibody (method of Example 3)
[12] = target: T1, human CD47, endogenous cell surface …; test: flow cytometry on CCRF-CEM cells, FITC anti-mouse IgG, MFI-FL1
Description: Bound CD47 antibodies were detected using a FITC conjugated anti-mouse IgG secondary antibody (Jackson ImmunoResearch).

B1: chimeric 2A1 antibody (2A1-xi) (antibody, V domains shown)
VH: EVQLQQSGAELVRSGASVKLSCTASGFNIKDYYLHWVKQRPEQGLEWIGWIDPDNGDTEFAPKFQGKATMTADTSSNTAYLQLSSLTSEDTAVYYCNAAYGSSSYPMDYWGQGTSVTV
VL: DIKMTQSPSSLYASLGERVTITCKASQDIHRYLSWFQQKPGKSPKILIYRANRLVDGVPSRFSGSGSGQDYSLTISSLEYEDMGIYYCLQYDEFPYTFGGGTKLEIK
EC50 (read off the curve) [1]: ~0.2 nM | EC50 (read off the curve) [2]: ~0.05 nM | EC50 (read off the curve) [3]: ~0.1 nM | EC50 (read off the curve) [4]: ~0.05 nM | EC50 (read off the curve) [5]: ~0.1 nM | Kd [6]: 0.078 nM | Kd [7]: 0.0364 nM

B2: humanized antibody AB2.05 (human IgG1) (antibody, V domains shown)
VH: QMQLVQSGAEVKKTGSSVKVSCKASGFNIKDYYLHWVRQAPGQALEWMGWIDPDNGDTEYAQKFQDRVTITRDRSMSTAYMELSSLRSEDTAMYYCNAAYGSSSYPMDYWGQGTTVTV
VL: NIQMTQSPSAMSASVGDRVTITCKASQDIHRYLSWFQQKPGKVPKHLIYRANRLVDGVPSRFSGSGSGTEFTLTISSLQPEDFATYYCLQYDEFPYTFGGGTKVEIK
EC50 (read off the curve) [1]: ~0.3 nM | EC50 (read off the curve) [8]: ~0.2 nM | EC50 (read off the curve) [2]: ~0.1 nM | EC50 (read off the curve) [9]: ~0.2 nM | EC50 (read off the curve) [5]: ~0.1 nM

B3: AB02.03 (antibody, V domains shown)
VH: B2 VH
VL: B2 VL with N1D, A10S, M11L, F36Y, V43A, H46L, E70D, L73F, F83I
notes: humanized variant of 2A1; also called AB2.03
EC50 (read off the curve) [8]: ~0.5 nM

B4: AB02.04 (antibody, V domains shown)
VH: B2 VH
VL: B2 VL with N1D, A10S, M11L, V43A, H46S, E70D
notes: humanized variant of 2A1; also called AB2.04
EC50 (read off the curve) [8]: ~0.2 nM

B5: AB02.06 (antibody, V domains shown)
VH: B2 VH
VL: B2 VL with N1D, A10S, M11L, F36Y, V43A, H46R
notes: humanized variant of 2A1; also called AB2.06
binding result [8]: binds

B6: AB02.07 (antibody, V domains shown)
VH: B2 VH
VL: DIQMTQSPSSLSASVGDRVTITCRASQDIHRYLAWYQQKPGKVPKLLIYRANRLQSGVPSRFSGSGSGTDFTLTISSLQPEDVATYYCLQYDEFPYTFGQGTKVEIK
notes: humanized variant of 2A1; also called AB2.07
EC50 (read off the curve) [8]: ~0.5 nM

B7: AB2.09 (antibody, V domains shown)
VH: B2 VH
VL: B2 VL with N1D
EC50 (read off the curve) [9]: ~0.2 nM

B8: AB2.13 (antibody, V domains shown)
VH: B2 VH
VL: B2 VL with K24R, S26R, D28G, H46I
EC50 (read off the curve) [2]: ~0.05 nM

B9: AB03.09 (antibody, V domains shown)
VH: B2 VH with Q1E, M2V
VL: B2 VL with N1D
notes: humanized variant of 2A1; also called AB3.09
EC50 (read off the curve) [9]: ~0.1 nM

B10: AB6.13 (antibody, V domains shown)
VH: B2 VH with N55Q
VL: B2 VL with K24R, S26R, D28G, H46I
EC50 (read off the curve) [2]: ~0.03 nM | EC50 (read off the curve) [3]: ~0.07 nM

B11: AB6.14 (antibody, V domains shown)
VH: B2 VH with N55Q
VL: B2 VL with K24R, S26R, D28G, D56S
binding result [3]: binds

B12: AB6.17 (antibody, V domains shown)
VH: B2 VH with N55Q
VL: B2 VL with K24R, S26R, D28G, H46L, D56S
EC50 (read off the curve) [2]: ~0.2 nM

B13: AB10.13 (antibody, V domains shown)
VH: B2 VH with G56T
VL: B2 VL with K24R, S26R, D28G, H46I
binding result [3]: binds

B14: AB10.14 (antibody, V domains shown)
VH: B2 VH with G56T
VL: B2 VL with K24R, S26R, D28G, D56S
EC50 (read off the curve) [3]: ~0.3 nM

B15: AB11.05 (antibody, V domains shown)
VH: B2 VH with S104P
VL: B2 VL
EC50 (read off the curve) [9]: ~0.2 nM

B16: AB12.05 (antibody, V domains shown)
VH: B2 VH with F27Y, N28T, I29F, K30T, D31Y
VL: B2 VL
EC50 (read off the curve) [5]: ~0.1 nM

B17: AB15.05 (antibody, V domains shown)
VH: B2 VH with F27Y, N28T, K30T, D31Y
VL: B2 VL
binding result [4]: binds

B18: AB16.05 (antibody, V domains shown)
VH: B2 VH with F27Y, N28T, I29F, D31Y
VL: B2 VL
binding result [4]: binds

B19: AB17.05 (antibody, V domains shown)
VH: B2 VH with F27Y, N28T, I29F, K30T
VL: B2 VL
EC50 (read off the curve) [9]: ~0.2 nM

B20: AB22.05 (antibody, V domains shown)
VH: B2 VH with M81L, E82Q
VL: B2 VL
EC50 (read off the curve) [5]: ~0.1 nM

B21: AB23.05 (antibody, V domains shown)
VH: B2 VH with R87T, M93V
VL: B2 VL
EC50 (read off the curve) [5]: ~0.1 nM

B22: AB24.05 (antibody, V domains shown)
VH: B2 VH with Q1E, M2V, T14P, S16A, S17T, V20I, A24V
VL: B2 VL
EC50 (read off the curve) [8]: ~0.2 nM

B23: AB25.05 (antibody, V domains shown)
VH: B2 VH with Q1E, M2V, T14P, S16A, S17T, V20I, A24V, R38Q, Q43K, A44G
VL: B2 VL
EC50 (read off the curve) [8]: ~0.3 nM

B24: humanized antibody AB6.12 (human IgG1) (antibody, V domains shown)
VH: B2 VH with N55Q
VL: B2 VL with D56S
notes: also called AB6.12-IgG1; AB6.12-hIgG1
Kd [7]: 0.0399 nM | Kd [10]: 0.0386 nM | IC50 (read off the curve) [11]: ~0.3 nM

B25: humanized antibody AB6.12-IgG4P (antibody, V domains shown)
VH: B2 VH with N55Q
VL: B2 VL with D56S
notes: Igkappa light chain; also called AB6.12-hIgG4P
Kd [10]: 0.0357 nM | IC50 (read off the curve) [11]: ~0.4 nM

B26: humanized antibody AB6.12-IgG4PE (antibody, V domains shown)
VH: B2 VH with N55Q
VL: B2 VL with D56S
notes: Igkappa light chain; also called AB6.12-hIgG4PE
Kd [10]: 0.0346 nM | IC50 (read off the curve) [11]: ~0.3 nM

B27: murine 9E4 antibody (antibody, mouse IgG1, V domains shown)
VH: EVQLRQSGPELVKPGASVKISCKASGYSFTDYYMYWVKQSRVRSLAWIGRINPYTGATGYDQNFKDKASLIVDKSSSTAYMELRSLTSEDSAVYYCARGRNRYDGWFAYWGQGTLVTV
VL: EIQMTQTTSSLSASLGDRVTISCRASQDISNYLNWYQQKPDGTVKLLIYYTSRLHSGVPSRFSGSGSGTDYSLTISNLDQEDIATYFCQQGNALPPTFGGGTNLEIK
EC50 (read off the curve) [12]: ~0.09 nM
